# Experimental data from article PMC5736220.
# Assays:
# pcdh15 (Mus musculus) = pcdh15 (Mus musculus) (UniProt Q99PJ1); assay: ITC; settings: cited from earlier work
# [1] = target: protocadherin-15 EC1+2 I22A, His-tagged (mouse) (UniProt Q99PJ1); assay: thermal scanning (thermal stability shift assay with SYPRO orange); pcdh15 fixed at 0.1 mg/mL (~4 μM), cdh23 0.1 to 0.5 mg/mL (~4 to 20 μM; cdh23:pcdh15 1:1 to 5:1); SEC buffer (20 mM Tris-HCl pH 7.5, 150 mM KCl, 50 mM NaCl, 2 mM CaCl2); 10 to 95°C in 0.2°C steps, 5 s equilibration; read-out: shift of the Tm of pcdh15 (ΔTm)
ΔTm of pcdh15 at cdh23:pcdh15 1:1 [1] [°C],ΔTm of pcdh15 at cdh23:pcdh15 2:1 [1] [°C],ΔTm of pcdh15 at cdh23:pcdh15 3:1 [1] [°C],ΔTm of pcdh15 at cdh23:pcdh15 4:1 [1] [°C],ΔTm of pcdh15 at cdh23:pcdh15 5:1 [1] [°C],Substance,Kd (pcdh15 (Mus musculus)) [nM]
,,,,,cdh23 (from UniProt Q99PF4),2900
0.5,0.7,1,1.1,1,"cadherin-23 EC1+2, wild type, His-tagged (from UniProt Q99PF4 24-228) (domain or fragment)",
